Experimental data published in article PMC8657904.

What was measured:
[1] = target: CmbHLH2 from chrysanthemum 'Jimba', GAL4 DNA-binding domain fusion (Chrysanthemum x morifolium 'Jimba')
[2] = target: CmbHLH2.1 (alternative splicing variant of CmbHLH2) from chrysanthemum 'Jimba', GAL4 DNA-binding domain fusion (Chrysanthemum x morifolium 'Jimba')
Chain of CmbHLH2.1 (alternative splicing variant of CmbHLH2) from chrysanthemum 'Jimba', GAL4 DNA-binding domain fusion (Chrysanthemum x morifolium 'Jimba') (main, as listed by the source mutant): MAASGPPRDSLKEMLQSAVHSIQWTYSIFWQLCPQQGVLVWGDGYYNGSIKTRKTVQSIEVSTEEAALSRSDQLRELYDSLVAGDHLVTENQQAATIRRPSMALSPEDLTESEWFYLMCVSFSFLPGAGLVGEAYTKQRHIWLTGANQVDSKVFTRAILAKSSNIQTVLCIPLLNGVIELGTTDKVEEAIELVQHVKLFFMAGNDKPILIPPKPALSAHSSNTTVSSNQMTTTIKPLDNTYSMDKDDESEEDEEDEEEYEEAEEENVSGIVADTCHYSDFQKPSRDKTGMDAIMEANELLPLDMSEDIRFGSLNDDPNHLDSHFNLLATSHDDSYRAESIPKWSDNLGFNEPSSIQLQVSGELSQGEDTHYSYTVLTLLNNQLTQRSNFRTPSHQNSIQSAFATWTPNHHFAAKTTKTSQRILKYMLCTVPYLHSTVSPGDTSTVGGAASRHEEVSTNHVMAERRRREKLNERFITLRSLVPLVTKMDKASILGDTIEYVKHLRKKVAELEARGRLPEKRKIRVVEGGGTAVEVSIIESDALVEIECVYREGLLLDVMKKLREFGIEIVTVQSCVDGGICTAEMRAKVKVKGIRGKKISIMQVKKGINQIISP

Chain of CmbHLH2 from chrysanthemum 'Jimba', GAL4 DNA-binding domain fusion (Chrysanthemum x morifolium 'Jimba') (main, as listed by the source): as the sequence (main, as listed by the source mutant) above

## CmMYB6 (transcript20734) from chrysanthemum 'Jimba', GAL4 activation domain fusion (natural protein)
[1]
  dual-luciferase assay in Nicotiana benthamiana leaves: fold-induced activation of the CmDFR promoter by CmMYB6 together with CmbHLH2, compared to empty vector: > 40 times
[2]
  dual-luciferase assay in Nicotiana benthamiana leaves: fold-induced activation of the CmDFR promoter by CmMYB6 together with CmbHLH2.1, compared to empty vector: > 10 times
